Data taken from IntAct's records for PubMed 29656893.

B1: Shieldin complex subunit 3 (Homo sapiens), Q6ZNX1 (parent)
chain: MTTEVILHYRPCESDPTQLPKIAEKAIQDFPTRPLSRFIPWFPYDGSKLPLRPKRSPPVISEEAAEDVKQYLTISEHDAKSHSYDCTVDLLEFQPSLKKQHLTWSHTLKEQTNSGNLGKQSEKGKQHKRRSWSISLPSNNCTKNVSPLSKKLQDSLKALNLHSLYRARWTIEHTICNSQTLEDIWTKLNQIIRHNELPSCNATIQRHLGQIWVFCDIMYCEYVGSLLKGRLALTGKINLFVHKYGVIFSM

Variants of: B1
Conditions: with md2l2_human MAD2L2, Q9UI95
Sequence of md2l2_human MAD2L2, Q9UI95 (Q9UI95 whole entry): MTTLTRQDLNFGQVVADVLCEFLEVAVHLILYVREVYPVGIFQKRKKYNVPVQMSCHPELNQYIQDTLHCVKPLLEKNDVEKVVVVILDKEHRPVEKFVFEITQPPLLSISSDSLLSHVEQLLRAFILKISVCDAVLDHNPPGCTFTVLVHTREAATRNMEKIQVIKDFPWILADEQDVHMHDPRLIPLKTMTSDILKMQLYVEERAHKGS

| effect of a mutation on the interaction | Variant |
| --- | --- |
| disrupting interaction strength | P53A;P58A |
